{"source": "patent US20040219637A1", "key": {"[1]": {"target": "Crotalus durissus terrificus venom", "test": "ELISA, venom coat, undiluted"}, "[2]": {"target": "Crotalus durissus terrificus venom", "test": "ELISA, venom coat, dilution 1:5"}, "[3]": {"target": "Crotalus durissus terrificus venom", "test": "ELISA, venom coat, dilution 1:25"}, "[4]": {"target": "Crotalus durissus terrificus venom", "test": "ELISA, venom coat, dilution 1:25", "remark": "listed apart in the source"}, "[5]": {"target": "Crotalus durissus terrificus venom", "test": "ELISA, venom coat, dilution 1:125"}, "[6]": {"target": "Crotalus durissus terrificus venom", "test": "ELISA, venom coat, dilution 1:625"}, "[7]": {"target": "Crotalus durissus terrificus venom", "test": "ELISA, venom coat, dilution 1:125", "remark": "listed apart in the source"}, "[8]": {"target": "Crotalus durissus terrificus venom", "test": "ELISA, venom coat, dilution 1:625", "remark": "listed apart in the source"}, "[9]": {"target": "Crotalus durissus terrificus venom", "test": "ELISA, venom coat, dilution 1:3125"}, "[10]": {"target": "Crotalus durissus terrificus venom", "test": "ELISA, venom coat, dilution 1:3125", "remark": "listed apart in the source"}, "[11]": {"target": "Crotalus durissus terrificus venom", "test": "ELISA, venom coat, dilution 1:62,500"}, "[12]": {"target": "Crotalus durissus terrificus venom", "test": "ELISA, venom coat, dilution 1:312,500"}}, "data": [{"substance": "Preimmune IgY (egg yolk antibody of unimmunized hens)", "values": [{"measurement": "ELISA absorbance", "setting": "[1]", "result": 0.003, "unit": "absorbance"}, {"measurement": "ELISA absorbance", "setting": "[2]", "result": "< 0", "unit": "absorbance"}, {"measurement": "ELISA absorbance", "setting": "[3]", "result": 0.016, "unit": "absorbance"}, {"measurement": "ELISA absorbance", "setting": "[4]", "result": 0, "unit": "absorbance"}, {"measurement": "ELISA absorbance", "setting": "[5]", "result": "< 0", "unit": "absorbance"}, {"measurement": "ELISA absorbance", "setting": "[6]", "result": "< 0", "unit": "absorbance"}, {"measurement": "ELISA absorbance", "setting": "[7]", "result": 0.003, "unit": "absorbance"}, {"measurement": "ELISA absorbance", "setting": "[8]", "result": 0, "unit": "absorbance"}, {"measurement": "ELISA absorbance", "setting": "[9]", "result": "< 0", "unit": "absorbance"}, {"measurement": "ELISA absorbance", "setting": "[10]", "result": 0.002, "unit": "absorbance"}, {"measurement": "ELISA absorbance (412 nm)", "setting": "[11]", "result": 0.001, "unit": "absorbance"}, {"measurement": "ELISA absorbance (412 nm)", "setting": "[12]", "result": 0.01, "unit": "absorbance"}]}]}
